Results from paper PMC6787036.

Target: human alpha-thrombin (Homo sapiens, UniProt P00734;P00734 328-363;364-622)
Experiment: affinity chromatography (HPLC, aptamer monolith); 5 mM Mg2+, pH 8.0; eluted with 2 M NaClO4; 10 mM Tris HCl, 5 mM MgCl2 (varied 0-20 mM), pH 8.0 (varied 4-10), 0.3 mL/min, elution with 2 M NaClO4; temperature not stated

B1: TBA (15-mer thrombin binding aptamer) (structured_DNA)
DNA: GGTTGGTGTGGTTGG
modifications: 5' amino-C6 (5AmMC6), covalently immobilised on poly(EDMA-co-GMA) monolith by Schiff-base (EDA/glutaraldehyde)
binding result: binds
